Biological target: the molecule itself
Assay: SEC-MALS; 100 μl samples at 1-5 mg/ml on Superdex 200 10/300 GL in 20 mM Tris, 200 mM NaCl, 0.05 % LDAO pH 7.9, 0.6 ml/min

B1: TamB_(963-1138) (domain or fragment, E. coli K12, UniProt P39321 963-1138, looked up)
chain: MDVSPDVVFEATPNLFTLDGRVDVPWARIVVHDLPESAVGVSSDVVMLNDNLQPEEPKTASIPINSNLIVHVGNNVRIDAFGLKARLTGDLNVVQDKQGLGLNGQINIPEGRFHAYGQDLIVRKGELLFSGPPDQPYLNIEAIRNPDATEDDVIAGVRVTGLADEPKAEIFSDPAM
notes: whole TamB has 1,259 amino acids; Cloned into pET-21a via NdeI and XhoI; A selenomethionine-labelled form was used for phasing only; Construct as described by Josts et al., 2014
Question: B1 was tested. Which “stoichiometry N” value did it give?
Answer: 2

Reference: article PMC5719984, “The Structure of a Conserved Domain of TamB Reveals a Hydrophobic β Taco Fold” (Structure(London, England:1993), 2017)
